According to PMC5384220:

Biological target: T1, N-terminally Hexa-His-tagged KDM4A (residues 1–359) (human) (UniProt O75164)
T1 sequence: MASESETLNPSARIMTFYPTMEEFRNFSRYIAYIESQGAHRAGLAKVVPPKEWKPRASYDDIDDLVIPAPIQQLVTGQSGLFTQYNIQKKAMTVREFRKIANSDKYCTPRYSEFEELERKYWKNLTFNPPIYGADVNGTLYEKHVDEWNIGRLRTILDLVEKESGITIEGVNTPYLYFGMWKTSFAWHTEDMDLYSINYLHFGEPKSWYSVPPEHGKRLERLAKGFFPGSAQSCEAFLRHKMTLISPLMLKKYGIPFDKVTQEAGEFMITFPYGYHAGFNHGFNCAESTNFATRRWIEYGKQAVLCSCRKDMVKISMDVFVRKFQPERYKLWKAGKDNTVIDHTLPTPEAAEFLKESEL

For RRRRRRRRR [PolyR (Arg)9 peptide], the IC50 of inhibition of demethylase activity (AlphaScreen method) was 40 nM.
